One block for each binder: values may come before it. Bridges are numbered along the chain shown (N, C = ends). [ ]: non-standard residue; d: D form. The star is where a group is joined. 5‑TAMRA = CN(C)c1ccc2c(-c3ccc(C(=O)*)cc3C(=O)[O-])c3ccc(N(C)C)cc3[o+]c2c1; NMeY = CN[C@@H](Cc1ccc(O)cc1)C(=O)O; Palmitoyl = CCCCCCCCCCCCCCCC(=O)*; R8 = C=CCCCCCC[C@@](C)(N)C(=O)O; Cba = N[C@@H](CC1CCC1)C(=O)O; hLeu = CC(C)CC[C@H](N)C(=O)O; S5 = C=CCCC[C@](C)(N)C(=O)O; Decac = not defined here; Napac = not defined here; Nle = CCCC[C@H](N)C(=O)O; F4g = not defined here; βAla = NCCC(=O)O
Legend:
MDM2 (In-house, 41 kD) = molecular target: T1, MDM2 (In-house, 41 kD) (UniProt Q00987 1-125, limits assumed); assay: competitive fluorescence polarization on MDM2 against FAM-labeled linear peptide; grade, scale in paragraph 462
T1 construct: Only 'In-house, 41 kD' is said of the protein used in the fluorescence polarization assays; also called HDM2

MDMX (In-house, 40 kD) [1] = molecular target: T2, MDMX (In-house, 40 kD) (UniProt O15151 1-120, limits assumed); assay: competitive fluorescence polarization on MDMX against FAM-labeled linear peptide; grade, scale in paragraph 462
T2 construct: Only 'In-house, 40 kD' is said of the protein used in the fluorescence polarization assays; also called MDM4
T2 sequence (looked up): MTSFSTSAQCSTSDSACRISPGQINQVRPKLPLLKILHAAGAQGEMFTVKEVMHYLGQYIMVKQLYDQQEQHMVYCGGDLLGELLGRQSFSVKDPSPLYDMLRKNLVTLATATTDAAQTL

MDMX (In-house, 40 kD) [2] = molecular target: T3, MDMX (In-house, 40 kD) (UniProt O15151 1-120, limits assumed); assay: IC50 (MDMX) grade; competitive FP vs FAM-labeled linear peptide; + = >1000 nM
T3 construct: The construct used is unknown; also called MDM4
T3 sequence (looked up): T2 sequence (looked up)

MDMX (In-house, 40 kD) [3] = molecular target: T4, MDMX (In-house, 40 kD) (UniProt O15151 1-120, limits assumed); assay: competitive FP vs FAM labeled linear peptide; column Ki (MDMX); + = >1000 nM by the table's scale
T4 construct: Only 'MDMX (In-house, 40 kD)' is said of the protein in the FP assays; also called MDM4
T4 sequence (looked up): T2 sequence (looked up)

MDMX (In-house, 40 kD) [4] = molecular target: T4, MDMX (In-house, 40 kD); assay: competitive FP vs FAM labeled linear peptide; column IC50 (MDMX); + = >1000 nM by the table's scale
MDMX (In-house, 40 kD) [5] = molecular target: T5, MDMX (In-house, 40 kD) (UniProt O15151 1-120, limits assumed); assay: FP competition on MDMX vs FAM-labeled linear peptide; graded Ki, + = >1000 nM
T5 construct: Construct not described beyond 'In-house, 40 kD'; also called MDM4
T5 sequence (looked up): T2 sequence (looked up)

MDMX (In-house, 40 kD) [6] = molecular target: T5, MDMX (In-house, 40 kD); assay: FP competition on MDMX vs FAM-labeled linear peptide; graded IC50, + = >1000 nM
MDMX (In-house, 40 kD) [7] = molecular target: T3, MDMX (In-house, 40 kD); assay: Ki (MDMX) grade; competitive FP vs FAM-labeled linear peptide; + = >1000 nM

T1 sequence (Q00987 1-125 limits assumed): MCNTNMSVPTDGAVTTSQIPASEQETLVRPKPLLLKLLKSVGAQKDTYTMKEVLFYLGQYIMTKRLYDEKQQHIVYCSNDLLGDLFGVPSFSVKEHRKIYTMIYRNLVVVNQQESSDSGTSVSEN

Ki (MDM2 (In-house, 41 kD)): ≤ 10 nM
B1: SP613, Ac-LTF$r8EYWAHL$AAAAAa-NH2 (peptide)
peptide: Ac-LTF[R8]EYWAHL[S5]AAAAA[dA]-NH2
modifications: staple 4-11
notes: stapled peptidomimetic macrocycle

Ki (MDM2 (In-house, 41 kD)): ≤ 10 nM
Ki (MDMX (In-house, 40 kD) [1]): ≤ 10 nM
B2: SP603, Ac-LTF$r8F4gYWAQL$AAAAAa-NH2 (peptide)
peptide: Ac-LTF[R8][F4g]YWAQL[S5]AAAAA[dA]-NH2
modifications: staple 4-11; not fully specified; reading uncertain
notes: as for B1

Ki (MDM2 (In-house, 41 kD)): ≤ 10 nM
B3: SP610, Ac-LTF$r8EYWASL$AAAAAa-NH2 (peptide)
peptide: Ac-LTF[R8]EYWASL[S5]AAAAA[dA]-NH2
modifications: staple 4-11
notes: as for B1

Ki (MDM2 (In-house, 41 kD)): ≤ 10 nM
Ki (MDMX (In-house, 40 kD) [1]): ≤ 10 nM
B4: SP716, Ac-LTF$r8EYWAQCba$AAA-NH2 (iso2) (peptide)
peptide: Ac-LTF[R8]EYWAQ[Cba][S5]AAA-NH2
modifications: staple 4-11; not fully specified
notes: stapled peptidomimetic macrocycle, isomer iso2

IC50 (MDMX (In-house, 40 kD) [2]): > 1000 nM
B5: SP323 (peptide)
peptide: Ac-LTF[R8]AYWAQ[hLeu][S5]AA[Nle]AA-NH2
modifications: staple 4-11
notes: Peptidomimetic macrocycle (stapled p53-derived peptide)

Ki (MDMX (In-house, 40 kD) [3]): > 1000 nM
IC50 (MDMX (In-house, 40 kD) [4]): > 1000 nM
B6: SP384 (peptide)
peptide: Ac-LTF[R8]A[NMeY]WAQL[S5]AA[Nle]A-NH2
modifications: staple 4-11; not fully specified
notes: Stapled peptidomimetic macrocycle, single isomer iso2; also called Ac-LTF$r8ANmYWAQL$AANleA-NH2

Ki (MDM2 (In-house, 41 kD)): ≤ 10 nM
B7: SP686, 5-TAMRA-BaLTF$r8EYWAQCba$SAA-NH2 (peptide)
peptide: {5‑TAMRA}-[βAla]LTF[R8]EYWAQ[Cba][S5]SAA-NH2
modifications: staple 5-12
SMILES: CC(C)C[C@H](NC(=O)CCNC(=O)c1ccc(-c2c3ccc(N(C)C)cc3[o+]c3cc(N(C)C)ccc23)c(C(=O)[O-])c1)C(=O)N[C@H](C(=O)N[C@@H](Cc1ccccc1)C(=O)N[C@]1(C)CCCCCCC=CCCC[C@@](C)(C(=O)N[C@@H](CO)C(=O)N[C@@H](C)C(=O)N[C@@H](C)C(N)=O)NC(=O)[C@H](CC2CCC2)NC(=O)[C@H](CCC(N)=O)NC(=O)[C@H](C)NC(=O)[C@H](Cc2c[nH]c3ccccc23)NC(=O)[C@H](Cc2ccc(O)cc2)NC(=O)[C@H](CCC(=O)O)NC1=O)[C@@H](C)O
notes: stapled peptidomimetic macrocycle with fluorescent label

Ki (MDM2 (In-house, 41 kD)): ≤ 10 nM
B8: SP609, Ac-LTF$r8EYWAAibL$AAAAAa-NH2 (peptide)
peptide: LTFAEYWAXLAAAAAAA
modifications: not fully specified; N-terminal acetyl; $r8 (alpha-Me R8-octenyl-alanine) at 4 crosslinked to $ (alpha-Me S5-pentenyl-alanine) at 11; Aib (2-aminoisobutyric acid) at 9; D-alanine at 17; C-terminal amide
notes: as for B1

Ki (MDMX (In-house, 40 kD) [5]): > 1000 nM
IC50 (MDMX (In-house, 40 kD) [6]): > 1000 nM
B9: SP252, Ac-LTA$r8EYWAQCba$SAA-NH2 (peptide)
peptide: Ac-LTA[R8]EYWAQ[Cba][S5]SAA-NH2
modifications: staple 4-11

Ki (MDM2 (In-house, 41 kD)): ≤ 10 nM
B10: SP433, Ac-LTF$r8EYWCou7QCba$SAA-NH2 (peptide)
peptide: LTFAEYWXQAASAA
modifications: not fully specified; N-terminal acetyl; $r8 (alpha-Me R8-octenyl-alanine) at 4 crosslinked to $ (alpha-Me S5-pentenyl-alanine) at 11; Cou7 at 8 (structure given only as a drawing); Cba (cyclobutyl alanine) at 10; C-terminal amide
notes: as for B1

Ki (MDM2 (In-house, 41 kD)): ≤ 10 nM
B11: SP612, Ac-LTF$r8EYWACitL$AAAAAa-NH2 (peptide)
peptide: LTFAEYWAXLAAAAAAA
modifications: not fully specified; N-terminal acetyl; $r8 (alpha-Me R8-octenyl-alanine) at 4 crosslinked to $ (alpha-Me S5-pentenyl-alanine) at 11; Cit (citrulline) at 9; D-alanine at 17; C-terminal amide
notes: as for B1

Ki (MDMX (In-house, 40 kD) [7]): > 1000 nM
IC50 (MDMX (In-house, 40 kD) [2]): > 1000 nM
B12: SP282 (peptide)
peptide: Decac-LTF[R8]EYWAQ[hLeu][S5]SAA-NH2
modifications: staple 4-11; reading uncertain
notes: as for B5

Ki (MDM2 (In-house, 41 kD)): > 1000 nM
B13: SP595, Ac-LTF$r8EYWAQCba$S-NH2 (peptide)
peptide: Ac-LTF[R8]EYWAQ[Cba][S5]S-NH2
modifications: staple 4-11
notes: as for B1

Ki (MDMX (In-house, 40 kD) [5]): > 1000 nM
IC50 (MDMX (In-house, 40 kD) [6]): > 1000 nM
B14: SP250, Pam-ETF$r8EYWAQCba$SAA-NH2 (peptide)
peptide: Palmitoyl-ETF[R8]EYWAQ[Cba][S5]SAA-NH2
modifications: staple 4-11

IC50 (MDMX (In-house, 40 kD) [2]): > 1000 nM
B15: SP281 (peptide)
peptide: Napac-LTF[R8]EYWAQ[hLeu][S5]SAA-NH2
modifications: staple 4-11; reading uncertain
notes: as for B5
